# Results from patent US9868789B2, “Synergistic combinations of OX40L antibodies for the treatment of GvHD” (Kymab Limited, priority 2015, dated 2018).
# T1: CHO-S expressed hOX40L (Homo sapiens, UniProt P23510)
# T1 construct: expressed in transfected cells
# T1 sequence (P23510 1-183): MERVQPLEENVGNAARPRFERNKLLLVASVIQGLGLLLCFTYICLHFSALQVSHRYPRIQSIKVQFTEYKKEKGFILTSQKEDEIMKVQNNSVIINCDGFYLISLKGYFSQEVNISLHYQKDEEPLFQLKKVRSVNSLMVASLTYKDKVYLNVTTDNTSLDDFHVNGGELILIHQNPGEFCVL
# Key:
# recombinant hOX40L = target: T2, recombinant hOX40L (Homo sapiens, UniProt P23510); assay: Surface plasmon resonance, apparent affinity to human OX40L; format: binding; conditions: SPR, 25° C., OX40L at 256 nM; CNROR = Cannot resolve off-rate
# T2 construct: cDNA encoding the extracellular domain of human OX40L was cloned into a pREP4 expression plasmid; made in house; host or cells: FreeStyle CHO-S, transient expression
# Method: (§1) SPR analysis was carried out using the ProteOn™ XPR36 Array System (BioRad). Anti-mouse IgG (GE Healthcare BR-1008-38) was immobilised on a GLM biosensor surface using amine coupling, the surface was then blocked using 1 M ethanolamine. Test antibodies were captured on this surface and recombinant hOX40L (human and rhesus) were used at a single concentration of 256 nM, binding sensorgrams were double referenced using a buffer injection (i.e. 0 nM) to remove baseline drift and injection artefacts. Apparent affinities for the OX40L-antibody interaction were determined using the 1:1 model inherent to the ProteOn XPR36 analysis software. The assay was run using HBS-EP (Teknova) as running buffer and carried out at 25° C.
# Rhesus monkey OX40L = assay: Surface plasmon resonance, apparent affinity to rhesus OX40L; format: binding, Rhesus (Macaca mulatta); conditions: SPR, 25° C., OX40L at 256 nM; CNROR = Cannot resolve off-rate
# Method: as §1
# allogeneic PBMC/PBMC MLR = assay: Allogeneic PBMC/PBMC Mixed Lymphocyte Reaction (IFN-γ release); format: cell-based, human; conditions: compared to the isotype control; one valid experiment
# Method: PBMCs are isolated from leukoreduction system chambers (NHSBT) using Ficoll-Paque plus (GE Healthcare) density gradient centrifugation. PBMC are pre-incubated with mitomycin C (Sigma) at 10 μg/mL in PBS for one hour at 37° C. Cells are then washed 3 times in PBS centrifuging at 300×g for 3 minutes, aspirating the supernatant after each wash. Allogeneic PBMC (not treated with mitomycin C) are added to a 96-well plate in RPMI supplemented with 10% v/v FBS at a concentration of 2×10^6/ml, 50 μL/well. Anti-OX40L antibodies are diluted in culture media and added to 96 well plate containing PBMC (not mitomycin C treated) at 50 μL/well. Mitomycin C treated PBMC are then added to allogeneic PBMC (not treated with mitomycin C) in 96-well plate at a final cell ratio in range of 1:1 to 4:1 mitomycin C treated to non mitomycin C based on number of cells/well. The cells are incubated for five days at 37° C./5% CO2. After five days TNF-α, IFN-γ, and IL-2 are measured by duoset ELISA (R&D Systems) according to manufacturer's recommendations. Proliferation is measured by CFSE dilution according to manufacturer's recommendations.
# PBMCs were isolated from leukoreduction system chambers (NHSBT) using Ficoll-Paque plus (GE Healthcare) density gradient centrifugation. […] After five days, IFN-γ was measured by duoset ELISA (R&D Systems) according to manufacturer's recommendations. […]
# [1] = tested on: CD3 primed primary human T lymphocytes; assay: Effect of anti-OX40L antibodies on CD3 primed primary human T lymphocytes (IFN-γ release); format: cell-based; conditions: 10 μg/mL, 5 days, four independent donors; versus human IgG4PE isotype control
# Method: In order to determine whether anti-OX40L had the ability to induce T-cell responses in the absence of OX40L, the assay below was performed using method adapted from Wang et al., Hybridoma (Larchmt)., 2009 Aug.; 28(4):269-76, in which an agonist anti-OX40L antibody was described.
# A mouse anti-human CD3 antibody (Becton Dickinson) was diluted to 0.5 μg/mL in sterile PBS and 50 μL/well added to a 96 well high binding sterile plate and incubated overnight at 4° C.
# Following overnight incubation, the plate was washed three times with 100 μL of sterile PBS.
# T-cells (CD3 positive) were isolated from PBMC derived from leukoreduction system chambers (NHSBT) as described in Example 3. Following isolation, the cells were added to wells in 100 μL to achieve a final concentration of 1×10^5 cells/well.
# Test antibodies were diluted in RPMI+10% FBS and 50 μL or 100 μL/well added to cell plate to achieve a final assay concentration of 10 μg/mL. In some cases, a mouse anti-human CD28 antibody (Becton Dickinson) was also added to wells at a final concentration of 1 μg/ml
# The assay was incubated for 5 days. After 5 days, harvest supernatants and IFN-γ levels in supernatant were determined as described in Example 5.
# CHO-S expressed hOX40L = target: T1, CHO-S expressed hOX40L; assay: FACS binding to CHO-S expressed hOX40L; conditions: binding to hOX40L expressed on CHO-S cells; YES
# Method: CHO-S cells expressing hOX40L or untransfected CHO-S cells, diluted in FACS buffer (PBS+1% w/v BSA+0.1% w/v NaN3) were distributed to a 96 well V-bottom plate (Greiner) at a density of 1×10^5 cells per well. Cells were washed with 150 μL of PBS and centrifuged at 300×g for 3 min. Supernatant was aspirated and 150 μL of PBS added. This wash step was repeated.
# 25 μL of hybridoma supernatant or purified antibody from hybridoma supernatant diluted in FACS buffer was added to the washed cells and incubated for 10-15 minutes. Reference Antibody or mouse IgG1 control antibody (Sigma) were diluted in FACS buffer to 20 μg/mL and 25 μL added to cells. 25 μL of human OX40R Fc (in-house) diluted to 1000 ng/mL in FACS buffer were then added to wells. Cells were incubated at 4° C. for 30 minutes.
# Cells were washed twice with 150 μL of PBS centrifuging after each wash step and aspirating supernatant (centrifuged at 300×g for 3 minutes).
# To detect antibody and receptor binding, 50 μL of Goat anti-human IgG-PE (Jackson ImmunoResearch) and APC anti-mouse IgG (Jackson ImmunoResearch) diluted 1 in 500 in FACS buffer was added to the cells. Cells were incubated 30 minutes at 4° C. in the dark.
# To fix cells 100 μL 2% v/v paraformaldehyde was added and cells incubated for 30 minutes at 4° C., cells were pelleted by centrifugation 300×g and the plates and resuspended in 50 μL of FACS buffer. PE and APC signal intensity (geomean) was measured by flow cytometry using a BD FACS Array instrument.
# % of control binding was calculated using geomean fluorescence as described in equation 1 where total binding was defined as reference antibody at 10 μg/mL and non-specific binding as mouse IgG1 antibody at 10 μg/mL. % receptor binding was calculated using Equation 3.
# Binding of antibodies purified from hybridoma supernatant was carried out as described herein.
# Chain of Rhesus monkey OX40L (as listed by the source): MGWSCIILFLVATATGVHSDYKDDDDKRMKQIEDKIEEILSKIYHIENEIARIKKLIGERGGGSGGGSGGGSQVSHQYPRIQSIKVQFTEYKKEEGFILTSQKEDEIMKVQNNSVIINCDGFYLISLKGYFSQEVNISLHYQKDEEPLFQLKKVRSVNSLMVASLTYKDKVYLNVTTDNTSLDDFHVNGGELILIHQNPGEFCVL
# T2 sequence (P23510 with tags, fused parts or gaps): as the sequence (as listed by the source) above, with Q77R, E95K counted along it
Molecule,Apparent Affinity hOX40L (nM) (recombinant hOX40L),Apparent Affinity RhsOX40L (nM) (Rhesus monkey OX40L),IFN-γ release in PBMC/PBMC MLR (allogeneic PBMC/PBMC MLR),IFN-γ release from CD3 primed T-cells in the absence of OX40L [1],FACS Binding (CHO-S expressed hOX40L)
"10A07 (human): fully human anti-human OX40L antibody reformatted to IgG4-PE; VH SEQ ID No:2, VL SEQ ID No:16 (antibody, listed as Homo Sapiens, V domains shown, IgG4-PE constant region) VH: EVQLVESGGVLVQPGGSLRLSCAASGFTFSSYIMTWVRQAPGKGLEWVSGISGSGGGTYYADSMKGRFTISRDNSKNTLYLQMNSLRVEDTAVYYCAKDRLGPITLVRGGYYYGMDVWGQGTTVTVSS VL: DIQMTQSPSSLSASVGDRVTITCRASQSISDYLNWYQQKPGKAPKFLIYAASSLQSGVPSRFSGSGSGTDFTLTVSSLQPEDFATYYCQQSYSTPRTFGQGTRVEIK",CNROR,CNROR,inhibited IFN-γ release,no effect,–
"10A07 (hybridoma): murine/human chimeric anti-hOX40L antibody purified from hybridoma supernatant; VH SEQ ID No:2, VL SEQ ID No:16 (antibody, listed as Homo Sapiens, V domains shown) VH: EVQLVESGGVLVQPGGSLRLSCAASGFTFSSYIMTWVRQAPGKGLEWVSGISGSGGGTYYADSMKGRFTISRDNSKNTLYLQMNSLRVEDTAVYYCAKDRLGPITLVRGGYYYGMDVWGQGTTVTVSS VL: DIQMTQSPSSLSASVGDRVTITCRASQSISDYLNWYQQKPGKAPKFLIYAASSLQSGVPSRFSGSGSGTDFTLTVSSLQPEDFATYYCQQSYSTPRTFGQGTRVEIK",CNROR,CNROR,–,–,YES
"9H04 (hybridoma): murine/human chimeric anti-hOX40L antibody from hybridoma; VH SEQ ID No:66, VL SEQ ID No:80 (antibody, listed as Homo Sapiens, V domains shown) VH: QVQLVESGGGLVKPGGSLRLSCAASRFTLSDYYMTWIRQAPGKGLEWVSYISSSGNTIYYADSVKGRFTISRDNAKNSLYLQMNSLRAEDTAVYYCARDLSGSYWDYYYGMDVWGQGTTVTVSS VL: AIQLTQSPSSLSTSVGDRVTIACRASQGINNALAWYQQKPGKAPKLLIYDASSLESGVPSRFSGSGSGTDFTLTISSLQPEDFATYYCQQFNSYPRTFGQGTKVEIK",–,–,–,–,YES
"2D10 (hybridoma): murine/human chimeric anti-hOX40L antibody purified from hybridoma supernatant; VH SEQ ID No:34, VL SEQ ID No:48 (antibody, listed as Homo Sapiens, V domains shown) VH: EVQLVESGGGLVQPGGSLRLSCAASGFTFSNYAMNWVRQAPGKGLEWVSTISGSGGATRYADSVKGRFTISRDNSRNTVYLQMNSLRVEDTAVFYCTKDRLIMATVRGPYYYGMDVWGQGTTVTVSS VL: DIQMTQSPSSLSASVGDRVTITCRASQSISSYLNWYQQKPGKAPNLLIYAASSLQSGVPSRFSGSGSETDFTLTISSLQPEDFATYYCQQSHSVSFTFGPGTKVDIK",CNROR,CNROR,–,–,YES
